The record followed here is patent US20080020979A1 (WISCONSIN ALUMNI RESEARCH FOUNDATION, published 2008).

Test [1] has as its target mouse αvβ3 integrin (mouse) (UniProt P43406). Put plainly: cell-based or functional assay.
Another test addresses mouse αvβ5 integrin (mouse, UniProt P43406 31-1044; O70309 24-798). Put plainly: cell-based or functional assay.
Test [2] has as its target T1, human αvβ3 integrin (human, UniProt P06756 31-1048; P05106 27-788). Put plainly: cell-based or functional assay.
A further test deals with human αvβ5 integrin (human, UniProt P06756 31-1048; P18084 24-799). Put plainly: cell-based or functional assay.
human αvβ5 integrin, sequence (P06756 31-1048, chain 1 of 2): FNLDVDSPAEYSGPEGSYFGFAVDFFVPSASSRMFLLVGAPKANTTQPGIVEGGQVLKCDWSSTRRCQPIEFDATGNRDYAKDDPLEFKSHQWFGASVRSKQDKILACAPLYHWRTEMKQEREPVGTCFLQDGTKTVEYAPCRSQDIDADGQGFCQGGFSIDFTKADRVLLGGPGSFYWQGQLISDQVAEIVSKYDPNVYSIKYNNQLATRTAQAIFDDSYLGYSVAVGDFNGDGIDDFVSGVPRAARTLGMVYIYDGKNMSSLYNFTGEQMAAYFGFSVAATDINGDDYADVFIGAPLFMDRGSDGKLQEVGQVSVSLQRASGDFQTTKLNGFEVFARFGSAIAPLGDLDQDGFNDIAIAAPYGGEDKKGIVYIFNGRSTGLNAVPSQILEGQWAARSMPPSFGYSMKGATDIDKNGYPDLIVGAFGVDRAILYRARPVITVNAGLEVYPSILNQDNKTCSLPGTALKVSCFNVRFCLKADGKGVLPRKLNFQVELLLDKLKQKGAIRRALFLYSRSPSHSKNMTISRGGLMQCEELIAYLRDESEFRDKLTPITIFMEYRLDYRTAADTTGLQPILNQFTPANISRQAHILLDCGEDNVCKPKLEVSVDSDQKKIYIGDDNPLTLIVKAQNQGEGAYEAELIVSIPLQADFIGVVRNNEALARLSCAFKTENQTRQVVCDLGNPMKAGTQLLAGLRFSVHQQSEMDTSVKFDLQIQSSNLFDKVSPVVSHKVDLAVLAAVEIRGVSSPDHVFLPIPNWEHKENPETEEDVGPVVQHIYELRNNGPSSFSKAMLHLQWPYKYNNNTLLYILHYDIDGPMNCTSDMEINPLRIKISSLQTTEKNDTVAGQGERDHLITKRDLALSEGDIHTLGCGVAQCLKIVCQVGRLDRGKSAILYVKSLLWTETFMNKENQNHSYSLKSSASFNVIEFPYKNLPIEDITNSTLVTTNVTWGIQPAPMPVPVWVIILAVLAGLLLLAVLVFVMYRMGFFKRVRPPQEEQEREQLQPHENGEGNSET
human αvβ5 integrin, sequence (P18084 24-799, chain 2 of 2): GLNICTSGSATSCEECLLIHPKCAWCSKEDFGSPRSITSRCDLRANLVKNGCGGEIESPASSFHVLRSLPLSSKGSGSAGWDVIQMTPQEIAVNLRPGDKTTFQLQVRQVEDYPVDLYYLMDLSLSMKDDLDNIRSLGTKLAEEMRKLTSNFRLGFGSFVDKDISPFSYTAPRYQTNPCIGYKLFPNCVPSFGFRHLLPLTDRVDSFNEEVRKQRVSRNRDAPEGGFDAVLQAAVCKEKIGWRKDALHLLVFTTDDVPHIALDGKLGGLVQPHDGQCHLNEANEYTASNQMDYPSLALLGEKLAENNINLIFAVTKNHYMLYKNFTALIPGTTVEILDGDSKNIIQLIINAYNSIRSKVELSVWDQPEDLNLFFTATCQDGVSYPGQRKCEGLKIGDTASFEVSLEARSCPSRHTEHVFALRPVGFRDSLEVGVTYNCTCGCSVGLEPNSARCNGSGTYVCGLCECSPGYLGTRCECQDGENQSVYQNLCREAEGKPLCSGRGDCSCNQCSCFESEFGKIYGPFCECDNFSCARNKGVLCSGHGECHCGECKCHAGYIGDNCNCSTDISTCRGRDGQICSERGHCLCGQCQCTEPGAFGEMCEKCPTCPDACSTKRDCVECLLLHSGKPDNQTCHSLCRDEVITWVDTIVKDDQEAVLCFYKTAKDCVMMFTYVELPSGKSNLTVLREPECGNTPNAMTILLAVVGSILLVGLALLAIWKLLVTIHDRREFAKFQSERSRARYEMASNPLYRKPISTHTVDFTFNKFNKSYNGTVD
Test [3] addresses T1, human αvβ3 integrin. The test is described as follows: co-immunoprecipitation from MDA-MB-231 cells, blot for β3 subunit.

T1 sequence (P06756 31-1048, chain 1 of 2): as the sequence (P06756 31-1048, chain 1 of 2) above
T1 sequence (P05106 27-788, chain 2 of 2): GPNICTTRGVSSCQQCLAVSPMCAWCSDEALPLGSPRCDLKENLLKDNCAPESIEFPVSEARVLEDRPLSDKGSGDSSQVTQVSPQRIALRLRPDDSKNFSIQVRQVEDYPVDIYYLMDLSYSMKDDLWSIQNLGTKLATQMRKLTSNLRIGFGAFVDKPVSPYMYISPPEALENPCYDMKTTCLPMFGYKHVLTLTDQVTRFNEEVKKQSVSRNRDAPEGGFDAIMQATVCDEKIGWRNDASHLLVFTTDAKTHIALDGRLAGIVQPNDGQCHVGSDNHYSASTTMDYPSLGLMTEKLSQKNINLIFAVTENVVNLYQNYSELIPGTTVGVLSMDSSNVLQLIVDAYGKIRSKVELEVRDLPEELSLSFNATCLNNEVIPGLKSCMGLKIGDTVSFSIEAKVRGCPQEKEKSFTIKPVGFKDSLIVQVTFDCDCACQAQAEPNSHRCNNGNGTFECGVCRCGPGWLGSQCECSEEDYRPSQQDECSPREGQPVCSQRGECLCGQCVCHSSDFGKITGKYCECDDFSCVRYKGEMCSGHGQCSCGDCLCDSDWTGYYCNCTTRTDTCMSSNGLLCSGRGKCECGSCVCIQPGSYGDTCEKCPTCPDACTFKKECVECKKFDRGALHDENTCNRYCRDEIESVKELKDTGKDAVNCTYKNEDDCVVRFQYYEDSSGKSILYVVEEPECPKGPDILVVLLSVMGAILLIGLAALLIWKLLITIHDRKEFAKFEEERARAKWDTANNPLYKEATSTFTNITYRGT
mouse αvβ5 integrin, sequence (P43406 31-1044, chain 1 of 2): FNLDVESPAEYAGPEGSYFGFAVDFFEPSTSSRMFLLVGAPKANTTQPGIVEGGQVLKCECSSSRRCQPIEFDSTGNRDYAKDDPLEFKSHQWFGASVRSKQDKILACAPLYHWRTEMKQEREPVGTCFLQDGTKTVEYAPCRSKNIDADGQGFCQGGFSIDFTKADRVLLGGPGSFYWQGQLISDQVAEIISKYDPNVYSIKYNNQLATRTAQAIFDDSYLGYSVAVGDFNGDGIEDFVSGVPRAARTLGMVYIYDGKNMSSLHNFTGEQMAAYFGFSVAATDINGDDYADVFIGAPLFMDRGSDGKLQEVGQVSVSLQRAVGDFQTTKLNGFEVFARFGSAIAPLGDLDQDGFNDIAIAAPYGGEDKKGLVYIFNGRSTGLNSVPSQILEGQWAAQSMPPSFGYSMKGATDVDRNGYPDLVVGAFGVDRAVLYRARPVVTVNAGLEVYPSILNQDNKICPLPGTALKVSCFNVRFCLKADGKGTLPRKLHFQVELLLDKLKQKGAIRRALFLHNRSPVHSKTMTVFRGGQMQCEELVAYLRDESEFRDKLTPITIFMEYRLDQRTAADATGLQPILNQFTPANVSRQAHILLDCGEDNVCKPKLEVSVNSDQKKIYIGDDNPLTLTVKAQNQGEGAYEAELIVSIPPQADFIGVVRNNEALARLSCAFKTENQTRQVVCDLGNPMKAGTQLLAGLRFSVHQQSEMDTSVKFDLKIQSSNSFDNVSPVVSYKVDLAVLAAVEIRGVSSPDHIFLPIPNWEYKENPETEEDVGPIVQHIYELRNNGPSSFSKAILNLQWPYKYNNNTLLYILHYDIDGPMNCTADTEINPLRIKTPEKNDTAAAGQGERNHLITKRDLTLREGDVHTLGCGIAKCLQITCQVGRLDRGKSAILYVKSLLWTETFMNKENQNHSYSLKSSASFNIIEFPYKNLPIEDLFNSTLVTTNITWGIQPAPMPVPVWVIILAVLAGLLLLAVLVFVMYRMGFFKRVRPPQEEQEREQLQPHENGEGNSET
mouse αvβ5 integrin, sequence (O70309 24-798, chain 2 of 2): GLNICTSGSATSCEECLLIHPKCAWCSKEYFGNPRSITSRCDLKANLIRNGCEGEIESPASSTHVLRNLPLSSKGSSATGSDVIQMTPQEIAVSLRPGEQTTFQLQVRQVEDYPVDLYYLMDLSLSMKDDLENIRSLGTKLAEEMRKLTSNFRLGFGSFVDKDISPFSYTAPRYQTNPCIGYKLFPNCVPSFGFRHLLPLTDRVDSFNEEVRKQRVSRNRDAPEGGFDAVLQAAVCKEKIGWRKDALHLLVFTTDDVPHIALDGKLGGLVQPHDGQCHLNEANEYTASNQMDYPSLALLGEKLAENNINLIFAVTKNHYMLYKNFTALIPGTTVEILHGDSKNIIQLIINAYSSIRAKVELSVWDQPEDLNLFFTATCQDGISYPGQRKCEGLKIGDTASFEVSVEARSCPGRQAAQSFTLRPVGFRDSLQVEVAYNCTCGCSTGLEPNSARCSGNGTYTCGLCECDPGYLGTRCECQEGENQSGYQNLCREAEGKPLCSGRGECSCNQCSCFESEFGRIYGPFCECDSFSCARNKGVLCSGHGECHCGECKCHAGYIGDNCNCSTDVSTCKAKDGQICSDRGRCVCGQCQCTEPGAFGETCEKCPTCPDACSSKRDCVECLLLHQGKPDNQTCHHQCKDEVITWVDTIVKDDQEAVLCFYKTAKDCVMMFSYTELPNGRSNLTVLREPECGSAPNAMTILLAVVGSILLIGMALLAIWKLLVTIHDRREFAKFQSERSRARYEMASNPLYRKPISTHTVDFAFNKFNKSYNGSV

As to “GST-mS1ED (recombinant mouse Sdc1 ectodomain, amino acids 18-251, expressed as a fusion protein with GST) (from UniProt P18828 18-251)”, the spreading of mouse aortic endothelial cells on VN in test [1] worked out at 1 µM. The molecule further displayed a spreading of mouse aortic endothelial cells on VN with mouse αvβ5 integrin of 1 µM. In the test with human αvβ3 integrin [2], the HMEC spreading on VN was found to be 5 µM; the IC50, HAEC spreading on VN worked out at 1000 nM; the IC50, HMEC-1 spreading on VN is 3000 to 10000 nM; the concentration that blocks endothelial cell attachment to VN altogether amounted to 10 µM. Also, in the test with human αvβ3 integrin [2], the percent reduction of HMEC spreading on VN at 1 µM mS1ED was greater than 80% and the percent reduction of HMEC spreading on VN at 3 µM mS1ED is greater than 90%. In the test with human αvβ5 integrin, this molecule gave an HMEC spreading on VN of 5 µM; an IC50, HAEC spreading on VN of 1000 nM; an IC50, HMEC-1 spreading on VN of 3000 to 10000 nM; a concentration that blocks endothelial cell attachment to VN altogether of 10 µM. Besides, in the test with human αvβ5 integrin, the percent reduction of HMEC spreading on VN at 1 µM mS1ED is greater than 80% and the percent reduction of HMEC spreading on VN at 3 µM mS1ED was greater than 90%.
As for STSTLPAGEGPKEGEAVVLPEVEPGLTAREQE [hSSTN 89-120 (amino acids 89-120 of the human Sdc1 sequence)], the “IC50, MDA-MB-231 attachment and spreading on VN” value with human αvβ3 integrin [2] was 100 to 300 nM.
With ASTSTLPAGEGPKEGEAVVLPEVEPGLTAREQEA [hSSTN 88-121 (amino acids 88-121 of the human Sdc1 sequence)], the “IC50, MDA-MB-231 attachment and spreading on VN” value with human αvβ3 integrin [2] lay in the range of 100 to 300 nM.

B1: mouse syndecan-1 mutant bearing deletion of amino acids 67-121 (receptor, UniProt P18828 23-311, looked up)
chain: QIVAVNVPPEDQDGSGDDSDNFSGSGTGALPDTLSRQTPSTWKDVTTRPRETVQLPITQRASTVRVTTAQAAVTSHPHGGMQPGLHETSAPTAPGQPDHQPPRVEGGGTSVIKEVVEDGTANQLPAGEGSGEQDFTFETSGENTAVAAVEPGLRNQPPVDEGATGASQSLLDRKEVLGGVIAGGLVGLIFAVCLVAFMLYRMKKKDEGSYSLEEPKQANGGAYQKPTKQEEFYA
notes: whole, on cells; also called mouse mutant lacking the active site
In the case of B1, the binding result with human αvβ3 integrin [3] was “no binding”.
SNTETAFTSVLPAGEKPEEGEPVLHVEAEPGFTARDKEKEVTTRPRETV [synstatin82-130 (SSTN82-130, 49-mer, amino acids 82-130 of mouse Sdc-1)]: the “IC50, B82L fibroblast spreading on VN” value with mouse αvβ5 integrin was roughly 100 nM. For the same molecule, in the test with human αvβ3 integrin [2], the “IC50, HMEC-1 spreading on VN” value was roughly 100 nM; the “IC50, MDA-MB-231 spreading on VN” value was roughly 100 nM; the “fold lower concentration than mS1ED for equal inhibition, endothelial cells on VN” value was 10 fold. In addition, in the test with human αvβ5 integrin, the “IC50, HMEC-1 spreading on VN” value was roughly 100 nM and the “fold lower concentration than mS1ED for equal inhibition, endothelial cells on VN” value was found to be 10 fold.
Regarding FTSVLPAGEKPEEGEPVLHVEAEPGFTARD [SSTN88-117 (30-mer)], the “fold less active, HMEC-1 attachment and spreading on VN” value with human αvβ3 integrin [2] and in the test with human αvβ5 integrin was 3 fold throughout.
